# Biological target: antigens on human iPSC-derived brain microvascular endothelial cells (BMECs) (human)
# Assay: flow cytometry of BMECs with phage, anti-M13 detection
substance,measurement,value
phage displaying anti-botulinum neurotoxin scFv,geometric mean (fluorescence),3.16

# — patent US20230331835A1
